Paper PMC11574045, “A cofactor-induced repressive type of transcription factor condensation can be induced by synthetic peptides to suppress tumorigenesis” (The EMBO Journal, 2024)

B1: SIX3 (protein, UniProt O95343 1-332, looked up)
Homeobox protein SIX3: MVFRSPLDLYSSHFLLPNFADSHHRSILLASSGGGNGAGGGGGAGGGSGGGNGAGGGGAGGAGGGGGGGSRAPPEELSMFQLPTLNFSPEQVASVCETLEETGDIERLGRFLWSLPVAPGACEAINKHESILRARAVVAFHTGNFRDLYHILENHKFTKESHGKLQAMWLEAHYQEAEKLRGRPLGPVDKYRVRKKFPLPRTIWDGEQKTHCFKERTRSLLREWYLQDPYPNPSKKRELAQATGLTPTQVGNWFKNRRQRDRAAAAKNRLQHQAIGPSGMRSLAEPGCPTHGSAESPSTAASPTTSVSSLTERADTGTSILSVTSSDSECDV
B2: SIX6 (protein, UniProt Q9QZ28 1-246, looked up)
Homeobox protein SIX6: MFQLPILNFSPQQVAGVCETLEESGDVERLGRFLWSLPVAPAACEALNKNESVLRARAIVAFHGGNYRELYHILENHKFTKESHAKLQALWLEAHYQEAEKLRGRPLGPVDKYRVRKKFPLPRTIWDGEQKTHCFKERTRHLLREWYLQDPYPNPSKKRELAQATGLTPTQVGNWFKNRRQRDRAAAAKNRLQQQVLSQGPGRVLRSEGEGTPEVLGVASSPAASLSSKAATSAISITSSDSECDI
B3: SMAD3 (protein, UniProt P84022 2-425, looked up)
Mothers against …: SSILPFTPPIVKRLLGWKKGEQNGQEEKWCEKAVKSLVKKLKKTGQLDELEKAITTQNVNTKCITIPRSLDGRLQVSHRKGLPHVIYCRLWRWPDLHSHHELRAMELCEFAFNMKKDEVCVNPYHYQRVETPVLPPVLVPRHTEIPAEFPPLDDYSHSIPENTNFPAGIEPQSNIPETPPPGYLSEDGETSDHQMNHSMDAGSPNLSPNPMSPAHNNLDLQPVTYCEPAFWCSISYYELNQRVGETFHASQPSMTVDGFTDPSNSERFCLGLLSNVNRNAAVELTRRHIGRGVRLYYIGGEVFAECLSDSAIFVQSPNCNQRYGWHPATVCKIPPGCNLKIFNNQEFAALLAQSVNQGFEAVYQLTRMCTIRMSFVKGWGAEYRRQTVTSTPCWIELHLNGPLQWLDKVLTQMGSPSIRCSSVS
B4: SMAD4 (protein, UniProt Q13485 1-552, looked up)
Mothers against …: MDNMSITNTPTSNDACLSIVHSLMCHRQGGESETFAKRAIESLVKKLKEKKDELDSLITAITTNGAHPSKCVTIQRTLDGRLQVAGRKGFPHVIYARLWRWPDLHKNELKHVKYCQYAFDLKCDSVCVNPYHYERVVSPGIDLSGLTLQSNAPSSMMVKDEYVHDFEGQPSLSTEGHSIQTIQHPPSNRASTETYSTPALLAPSESNATSTANFPNIPVASTSQPASILGGSHSEGLLQIASGPQPGQQQNGFTGQPATYHHNSTTTWTGSRTAPYTPNLPHHQNGHLQHHPPMPPHPGHYWPVHNELAFQPPISNHPAPEYWCSIAYFEMDVQVGETFKVPSSCPIVTVDGYVDPSGGDRFCLGQLSNVHRTEAIERARLHIGKGVQLECKGEGDVWVRCLSDHAVFVQSYYLDREAGRAPGDAVHKIYPSAYIKVFDLRQCHRQMQQQAATAQAAAAAQAAAVAGNIPGPGSVGGIAPAISLSAAAGIGVDDLRRLCILRMSFVKGWGPDYPRQSIKETPCWIEIHLHRALQLLDEVLHTMPIADPQPLD
B5: SMAD7 (protein, UniProt O15105 1-426, looked up)
Mothers against …: MFRTKRSALVRRLWRSRAPGGEDEEEGAGGGGGGGELRGEGATDSRAHGAGGGGPGRAGCCLGKAVRGAKGHHHPHPPAAGAGAAGGAEADLKALTHSVLKKLKERQLELLLQAVESRGGTRTACLLLPGRLDCRLGPGAPAGAQPAQPPSSYSLPLLLCKVFRWPDLRHSSEVKRLCCCESYGKINPELVCCNPHHLSRLCELESPPPPYSRYPMDFLKPTADCPDAVPSSAETGGTNYLAPGGLSDSQLLLEPGDRSHWCVVAYWEEKTRVGRLYCVQEPSLDIFYDLPQGNGFCLGQLNSDNKSQLVQKVRSKIGCGIQLTREVDGVWVYNRSSYPIFIKSATLDNPDSRTLLVHKVFPGFSIKAFDYEKAYSLQRPNDHEFMQQPWTGFTVQISFVKGWGQCYTRQFISSCPCWLEVIFNSR
B6: SMARCAD1 (protein, UniProt Q9H4L7 1-1026, looked up)
SWI/SNF-related …: MNLFNLDRFRFEKRNKIEEAPEATPQPSQPGPSSPISLSAEEENAEGEVSRANTPDSDITEKTEDSSVPETPDNERKASISYFKNQRGIQYIDLSSDSEDVVSPNCSNTVQEKTFNKDTVIIVSEPSEDEESQGLPTMARRNDDISELEDLSELEDLKDAKLQTLKELFPQRSDNDLLKLIESTSTMDGAIAAALLMFGDAGGGPRKRKLSSSSEPYEEDEFNDDQSIKKTRLDHGEESNESAESSSNWEKQESIVLKLQKEFPNFDKQELREVLKEHEWMYTEALESLKVFAEDQDMQYVSQSEVPNGKEVSSRSQNYPKNATKTKLKQKFSMKAQNGFNKKRKKNVFNPKRVVEDSEYDSGSDVGSSLDEDYSSGEEVMEDGYKGKILHFLQDASIGELTLIPQCSQKKAQKITELRPFNSWEALFTKMSKTNGLSEDLIWHCKTLIQERDVVIRLMNKCEDISNKLTKQVTMLTGNGGGWNIEQPSILNQSLSLKPYQKVGLNWLALVHKHGLNGILADEMGLGKTIQAIAFLAYLYQEGNNGPHLIVVPASTIDNWLREVNLWCPTLKVLCYYGSQEERKQIRFNIHSRYEDYNVIVTTYNCAISSSDDRSLFRRLKLNYAIFDEGHMLKNMGSIRYQHLMTINANNRLLLTGTPVQNNLLELMSLLNFVMPHMFSSSTSEIRRMFSSKTKSADEQSIYEKERIAHAKQIIKPFILRRVKEEVLKQLPPKKDRIELCAMSEKQEQLYLGLFNRLKKSINNLEKNTEMCNVMMQLRKMANHPLLHRQYYTAEKLKEMSQLMLKEPTHCEANPDLIFEDMEVMTDFELHVLCKQYRHINNFQLDMDLILDSGKFRVLGCILSELKQKGDRVVLFSQFTMMLDILEVLLKHHQHRYLRLDGKTQISERIHLIDEFNTDMDIFVFLLSTKAGGLGINLTSANVVILHDIDCNPYNDKQAEDRCHRVGQTKEVLVIKLISQGTIEESMLKINQQKLKLEQDMTTVDEGDEGSMPADIATLLKTSMGL
B7: BCL11B (protein, UniProt Q9C0K0 1-894, looked up)
B-cell lymphoma/leukemia 11B: MSRRKQGNPQHLSQRELITPEADHVEAAILEEDEGLEIEEPSGLGLMVGGPDPDLLTCGQCQMNFPLGDILVFIEHKRKQCGGSLGACYDKALDKDSPPPSSRSELRKVSEPVEIGIQVTPDEDDHLLSPTKGICPKQENIAGPCRPAQLPAVAPIAASSHPHSSVITSPLRALGALPPCLPLPCCSARPVSGDGTQGEGQTEAPFGCQCQLSGKDEPSSYICTTCKQPFNSAWFLLQHAQNTHGFRIYLEPGPASSSLTPRLTIPPPLGPEAVAQSPLMNFLGDSNPFNLLRMTGPILRDHPGFGEGRLPGTPPLFSPPPRHHLDPHRLSAEEMGLVAQHPSAFDRVMRLNPMAIDSPAMDFSRRLRELAGNSSTPPPVSPGRGNPMHRLLNPFQPSPKSPFLSTPPLPPMPPGGTPPPQPPAKSKSCEFCGKTFKFQSNLIVHRRSHTGEKPYKCQLCDHACSQASKLKRHMKTHMHKAGSLAGRSDDGLSAASSPEPGTSELAGEGLKAADGDFRHHESDPSLGHEPEEEDEEEEEEEEELLLENESRPESSFSMDSELSRNRENGGGGVPGVPGAGGGAAKALADEKALVLGKVMENVGLGALPQYGELLADKQKRGAFLKRAAGGGDAGDDDDAGGCGDAGAGGAVNGRGGGFAPGTEPFPGLFPRKPAPLPSPGLNSAAKRIKVEKDLELPPAALIPSENVYSQWLVGYAASRHFMKDPFLGFTDARQSPFATSSEHSSENGSLRFSTPPGDLLDGGLSGRSGTASGGSTPHLGGPGPGRPSSKEGRRSDTCEYCGKVFKNCSNLTVHRRSHTGERPYKCELCNYACAQSSKLTRHMKTHGQIGKEVYRCDICQMPFSVYSTLEKHMKKWHGEHLLTNDVKIEQAERS
B8: SMYD1 (protein, UniProt Q8NB12 1-490, looked up)
Histone-lysine …: MTIGRMENVEVFTAEGKGRGLKATKEFWAADIIFAERAYSAVVFDSLVNFVCHTCFKRQEKLHRCGQCKFAHYCDRTCQKDAWLNHKNECSAIKRYGKVPNENIRLAARIMWRVEREGTGLTEGCLVSVDDLQNHVEHFGEEEQKDLRVDVDTFLQYWPPQSQQFSMQYISHIFGVINCNGFTLSDQRGLQAVGVGIFPNLGLVNHDCWPNCTVIFNNGNHEAVKSMFHTQMRIELRALGKISEGEELTVSYIDFLNVSEERKRQLKKQYYFDCTCEHCQKKLKDDLFLGVKDNPKPSQEVVKEMIQFSKDTLEKIDKARSEGLYHEVVKLCRECLEKQEPVFADTNIYMLRMLSIVSEVLSYLQAFEEASFYARRMVDGYMKLYHPNNAQLGMAVMRAGLTNWHAGNIEVGHGMICKAYAILLVTHGPSHPITKDLEAMRVQTEMELRMFRQNEFMYYKMREAALNNQPMQVMAEPSNEPSPALFHKKQ
B9: SNAI2 (protein, UniProt O43623 1-268, looked up)
Zinc finger protein SNAI2: MPRSFLVKKHFNASKKPNYSELDTHTVIISPYLYESYSMPVIPQPEILSSGAYSPITVWTTAAPFHAQLPNGLSPLSGYSSSLGRVSPPPPSDTSSKDHSGSESPISDEEERLQSKLSDPHAIEAEKFQCNLCNKTYSTFSGLAKHKQLHCDAQSRKSFSCKYCDKEYVSLGALKMHIRTHTLPCVCKICGKAFSRPWLLQGHIRTHTGEKPFSCPHCNRAFADRSNLRAHLQTHSDVKKYQCKNCSKTFSRMSLLHKHEESGCCVAH

Each molecule was assayed on HEK293FT cells transfected with TF library (assay: Screening of TF condensates based on fluorescent puncta). Settings: Figure 1B numerical data; TF library screen, one value per transcriptional factor.
Type: cell-based
How it was run: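 Condensate formation is scored as Alexa 488-labelled puncta after Flag- or GAL4-tag immunostaining of fixed HEK293FT cells expressing individual TFs, with a 12 h glucose-free or glucose-containing culture preceding fixation.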

Row | Molecule | Z score of condensed fraction
1 | B1 | -0.646
2 | B2 | 1.297
3 | B3 | -0.8472
4 | B4 | -0.5517
5 | B5 | -1.192
6 | B6 | -0.654
7 | B7 | -0.7987
8 | B8 | -0.4905
9 | B9 | -0.6818
